# Source: patent US20230285582A1 (published 2023)
# Substitutions are numbered along the chain they refer to. In names and notes the source's numbering stands.
# B1: humanized anti-TfR Fab 3M12 VH3/Vk2 (Fab, V domains shown)
# VH: QVQLQESGPGLVKPSQTLSLTCSVTGYSITSGYYWNWIRQPPGKGLEWMGYITFDGANNYNPSLKNRVSISRDTSKNQFSLKLSSVTAEDTATYYCTRSSYDYDVLDYWGQGTTVTVSS
# VL: DIQMTQSPSSLSASVGDRVTITCRASQDISNFLNWYQQKPGQPVKLLIYYTSRLHSGVPSRFSGSGSGTDFTLTISSLQPEDFATYFCQQGHTLPYTFGQGTKLEIKR
# B2: humanized anti-TfR Fab 3M12 VH3/Vk3 (Fab, V domains shown)
# VH: B1 VH
# VL: B1 VL with F87Y
# B3: humanized anti-TfR Fab 3M12 VH4/Vk2 (Fab, V domains shown)
# VH: B1 VH with S23T, M49I
# VL: B1 VL
# B4: humanized anti-TfR Fab 3A4 VH3 (N54T)/Vk4 (Fab, V domains shown)
# VH: EVQLVQSGSELKKPGASVKVSCTASGFNIKDDYMYWVRQPPGKGLEWIGWIDPETGDTEYASKFQDRVTVTADTSTNTAYMELSSLRSEDTAVYYCTLWLRRGLDYWGQGTLVTVSS
# VL: DIVMTQSPLSLPVTPGEPASISCRSSKSLLHSNGYTYLFWFQQRPGQSPRLLIYRMSNLASGVPDRFSGSGSGTDFTLKISRVEAEDVGVYYCMQHLEYPFTFGGGTKVEIKR
# B5: humanized anti-TfR Fab 3A4 VH3 (N54S)/Vk4 (Fab, V domains shown)
# VH: B4 VH with T55S
# VL: B4 VL
# B6: humanized anti-TfR Fab 3A4 VH3/Vk4 (Fab, V domains shown)
# VH: B4 VH with T55N
# VL: B4 VL
# B7: humanized anti-TfR Fab 5H12 VH5 (C33Y)/Vk4 (Fab, V domains shown)
# VH: QVQLVQSGAEVKKPGASVKVSCKASGYSFTDYYINWVRQAPGQGLEWMGWIYPGSGNTRYSERFKGRVTITRDTSASTAYMELSSLRSEDTAVYYCAREDYYPYHGMDYWGQGTLVTVSS
# VL: DIVMTQSPDSLAVSLGERATINCRASESVDGYDNSFMHWYQQKPGQPPKLLIFRASNLESGVPDRFSGSGSGTDFTLTISSLQAEDVAVYYCQQSSEDPWTFGQGTKLEIKR
# B8: humanized anti-TfR Fab 5H12 VH5 (C33D)/Vk4 (Fab, V domains shown)
# VH: B7 VH with Y33D
# VL: B7 VL
# B9: humanized anti-TfR Fab 5H12 VH5 (C33Y)/Vk3 (Fab, V domains shown)
# VH: B7 VH
# VL: B7 VL with M4L, G72R
# B10: conjugate of humanized anti-TfR Fab 3M12 VH4/Vk3 with DMPK-targeting oligonucleotide ASO300 (Fab, V domains shown)
# VH: B1 VH with S23T, M49I
# VL: B1 VL with F87Y
# modifications: ASO300 oligonucleotide attached through a cleavable Val-Cit linker (Formula (C)); residue and chain not stated
# notes: also called 3M12 (VH4/Vk3) conjugate; DMPK oligo conjugate
# B11: conjugate of humanized anti-TfR Fab 3A4 VH3 (N54S)/Vk4 with DMPK-targeting oligonucleotide ASO300 (Fab, V domains shown)
# VH: B4 VH with T55S
# VL: B4 VL
# modifications: ASO300 oligonucleotide attached through a cleavable Val-Cit linker (Formula (C)); residue and chain not stated
# notes: also called 3A4 (VH3-N54S/Vk4) conjugate; DMPK oligo conjugate
# B12: conjugate of humanized anti-TfR Fab 3A4 VH3/Vk4 with DMPK-targeting oligonucleotide ASO300 (Fab, V domains shown)
# VH: B4 VH with T55N
# VL: B4 VL
# modifications: ASO300 oligonucleotide attached through a cleavable Val-Cit linker (Formula (C)); residue and chain not stated
# notes: also called 3A4 (VH3/Vk4) conjugate; DMPK oligo conjugate
# B13: conjugate of humanized anti-TfR Fab 3M12 VH3/Vk2 with DMPK-targeting oligonucleotide ASO300 (Fab, V domains shown)
# VH: B1 VH
# VL: B1 VL
# modifications: ASO300 oligonucleotide attached through a cleavable Val-Cit linker (Formula (C)); residue and chain not stated
# notes: also called 3M12 (VH3/Vk2) conjugate; DMPK oligo conjugate
# B14: conjugate of humanized anti-TfR Fab 3A4 VH3 (N54T)/Vk4 with DMPK-targeting oligonucleotide ASO300 (Fab, V domains shown)
# VH: B4 VH
# VL: B4 VL
# modifications: ASO300 oligonucleotide attached through a cleavable Val-Cit linker (Formula (C)); residue and chain not stated
# notes: also called 3A4 (VH3-N54T/Vk4) conjugate; DMPK oligo conjugate
# B15: conjugate of humanized anti-TfR Fab 5H12 VH5 (C33D)/Vk4 with DMPK-targeting oligonucleotide ASO300 (Fab, V domains shown)
# VH: B7 VH with Y33D
# VL: B7 VL
# modifications: ASO300 oligonucleotide attached through a cleavable Val-Cit linker (Formula (C)); residue and chain not stated
# notes: also called 5H12 (VH5-C33D/Vk4) conjugate; DMPK oligo conjugate
# B16: conjugate of humanized anti-TfR Fab 5H12 VH5 (C33Y)/Vk4 with DMPK-targeting oligonucleotide ASO300 (Fab, V domains shown)
# VH: B7 VH
# VL: B7 VL
# modifications: ASO300 oligonucleotide attached through a cleavable Val-Cit linker (Formula (C)); residue and chain not stated
# notes: also called 5H12 (VH5-C33Y/Vk4) conjugate; DMPK oligo conjugate
# B17: anti-TfR Fab 3M12 VH4/Vk3 (Fab, V domains shown)
# VH: B1 VH with S23T, M49I
# VL: B1 VL with F87Y
# B18: conjugate of humanized anti-TfR Fab 5H12 VH5 (C33Y)/Vk3 with DMPK-targeting oligonucleotide ASO300 (Fab, V domains shown)
# VH: B7 VH
# VL: B7 VL with M4L, G72R
# modifications: ASO300 oligonucleotide attached through a cleavable Val-Cit linker (Formula (C)); residue and chain not stated
# notes: also called 5H12 (VH5-C33Y/Vk3) conjugate
# Molecular target: T1, cynomolgus monkey (Macaca fascicularis) TfR1 (cynomolgus monkey (Macaca fascicularis), UniProt Q5RDH6 89-760 (Pongo abelii entry), limits assumed)
# T1 construct: also called cTfR1; cyTfR1
# T1 chain: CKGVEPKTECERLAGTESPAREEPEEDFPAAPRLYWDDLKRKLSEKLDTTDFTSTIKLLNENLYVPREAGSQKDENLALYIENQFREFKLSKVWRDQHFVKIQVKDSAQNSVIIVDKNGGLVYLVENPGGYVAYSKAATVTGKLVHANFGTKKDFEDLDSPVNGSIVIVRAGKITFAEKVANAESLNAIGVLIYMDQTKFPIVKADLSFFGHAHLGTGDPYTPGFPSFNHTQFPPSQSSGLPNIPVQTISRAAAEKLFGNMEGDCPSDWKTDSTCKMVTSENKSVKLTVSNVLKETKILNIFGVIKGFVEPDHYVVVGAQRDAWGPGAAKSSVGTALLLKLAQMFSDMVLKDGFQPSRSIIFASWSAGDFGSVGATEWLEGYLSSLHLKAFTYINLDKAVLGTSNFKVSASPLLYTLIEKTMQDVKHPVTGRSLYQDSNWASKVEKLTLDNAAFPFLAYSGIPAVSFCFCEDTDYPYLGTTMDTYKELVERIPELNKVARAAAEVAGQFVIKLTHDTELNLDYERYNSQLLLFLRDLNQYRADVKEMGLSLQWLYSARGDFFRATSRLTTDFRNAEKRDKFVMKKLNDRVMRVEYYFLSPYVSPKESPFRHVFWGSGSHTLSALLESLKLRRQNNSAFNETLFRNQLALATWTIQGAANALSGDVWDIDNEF
# Test: ELISA, d0
# Description: (§1) To measure binding of humanized anti-TfR antibodies to TfR1, ELISAs were conducted. High binding, black, flat bottom, 96 well plates (Corning# 3925) were first coated with 100 µL/well of recombinant huTfR1 at 1 µg/mL in PBS and incubated at 4° C. overnight. Wells were emptied and residual liquid was removed. Blocking was conducted by adding 200 µL of 1%BSA (w/w) in PBS to each well. Blocking was allowed to proceed for 2 hours at room temperature on a shaker at 300 rpm. After blocking, liquid was removed and wells were washed three times with 300 µL of TBST. Anti-TfR1 antibodies were then added in 0.5% BSA/TBST in triplicate in an 8 point serial dilution (dilution range 5 µg/mL- 5 ng/mL). A positive control and isotype controls were also included on the ELISA plate. The plate was incubated at room temperature on an orbital shaker for 60 minutes at 300 rpm, and the plate was washed three times with 300 µL of TBST. Anti-(H+L)IgG-A488 (1:500) (Invitrogen #A11013) was diluted in 0.5% BSA in TBST, and 100 µL was added to each well. The plate was then allowed to incubate at room temperature for 60 minutes at 300 rpm on orbital shaker. The liquid was removed and the plate was washed four times with 300 µL of TBST. Absorbance was then measured at 495 nm excitation and […] (with a 15 nm bandwidth) on a plate reader. Data was recorded and analyzed for EC₅₀. […] ELISA measurements were conducted using cynomolgus monkey (Macaca fascicularis) TfR1 (cTfR1) according to the same protocol described above for hTfR1, and results are shown in FIGS. 9B, 9D, and 9F.
row,Binder,EC50
1,B1,9.9 nM
2,B2,4.7 nM
3,B3,1.4 nM
4,B4,156 nM
5,B5,398 nM
6,B6,122 nM
7,B7,3.3 nM
8,B8,3.5 nM
9,B9,2.1 nM

# Molecular target: T1, cynomolgus monkey (Macaca fascicularis) …
# Test: ELISA, Fab-ASO300 conjugate
row,Binder,EC50
1,B10,1.85 nM
2,B11,4.1 nM
3,B12,7.59 nM
4,B13,2.26 nM
5,B14,5.12 nM
6,B15,10.2 nM
7,B16,13.9 nM

# Molecular target: T1, cynomolgus monkey (Macaca fascicularis) …
# Test: ELISA, d9 (after 9 days at 40 C)
row,Binder,EC50
1,B1,19.5 nM
2,B17,16.4 nM
3,B2,15.6 nM
4,B3,5.01 nM
5,B4,128 nM
6,B5,248 nM
7,B6,878 nM
8,B7,0.26 nM
9,B8,0.63 nM
10,B9,0.69 nM

# Molecular target: T1, cynomolgus monkey (Macaca fascicularis) …
# Test: ELISA, coated recombinant TfR1, unconjugated Fab
# Description: as §1
row,Binder,EC50
1,B1,9.9 nM
2,B2,4.7 nM
3,B3,1.4 nM
4,B4,156 nM
5,B5,398 nM
6,B6,122 nM
7,B7,3.3 nM
8,B8,3.5 nM
9,B9,2.1 nM

# Molecular target: T1, cynomolgus monkey (Macaca fascicularis) …
# Test: ELISA, coated recombinant TfR1, Fab-ASO300 conjugate
row,Binder,EC50
1,B10,2.1 nM
2,B11,7.8 nM
3,B12,7.6 nM
4,B13,2.9 nM
5,B14,4.7 nM
6,B15,10.2 nM
7,B18,2.3 nM
8,B16,3.3 nM
